For one test, the target named is GFP-Caprin-1(356-386) (UniProt Q14444). Kind of test: ITC. Conditions: 25°C, 150 mM NaCl, 10 mM MgCl2.
In another test the target is GFP-USP10(1-28) (UniProt Q14694). Kind of test: ITC. The following applies: 25°C, 150 mM NaCl, 10 mM MgCl2.

The values below come from doi:10.1101/2021.02.05.429362.

One may read the KD as the constant that tells how readily two partners part at equilibrium. Take G3BP1 NTF2-like domain (G3BP1-NTF2): the KD with GFP-Caprin-1(356-386) (pH 5.6) is 1.4 μM (1.1 / 1.7); in the test with GFP-Caprin-1(356-386) (pH 7.4), 4 ± 2 µM; in the test with GFP-USP10(1-28) (pH 5.6) it was 0.5 μM (0.3 / 0.7); with GFP-USP10(1-28) (pH 7.4), 1.5 ± 0.5 µM.
